Laboratory results from PMC10684580, “Unexpected dynamics in femtomolar complexes of binding proteins with peptides” (Nature Communications, 2023).
One block for each molecule: values may come before it.

What was measured:
N^AM4C [1] = test: [15N,1H]-HSQC peptide titration, N^AM4C/NM4C; assay type: binding; conditions: 310 K, 250 μM dArmRP
Procedure: All experiments were recorded on Bruker Neo 600 or 700 MHz spectrometers, employing cryogenically cooled or Prodigy ^1H, ^13C, ^15N triple-resonance probes. Pulse field gradients with coherence selection[46] were applied to all heteronuclear ^15N,^1H experiments using standard Bruker pulse sequences, together with the Rance-Palmer method for sensitivity enhancement. All spectra were processed in TOPSPIN using cosine-bell-shifted window functions prior to Fourier transformation, and analyzed in CARA[48]. Chemical shift assignments were obtained from triple-resonance and HCCH-type 3D NMR experiments using the standard Bruker pulse-program library. […]
(§1) The peptides were dissolved in NMR buffer to generate 10 mM stocks that were titrated in 0.1 molar equivalents steps to 250 μM dArmRPs in NMR buffer up to 1.5 equivalents, and then in 0.5 equivalents steps up to 5.5 equivalents. For each step, a [^15N,^1H]-HSQC experiment was recorded at 310 K with the other parameters described above.
Assignments of the spectra required for CSPs were performed through segmental labeling as detailed in the Results section. […] CSPs were calculated using the following formula[50]9 δHf−δHb/1^2+δNf−δNb/4^2 where δH and δN represent the chemical shifts in the proton and nitrogen dimensions, respectively, while f and b represent the free and bound states, respectively. […]

N^AM4C [2] = test: NMR line-shape simulation, N^AM4C peptide titration (three-state); assay type: binding; conditions: three-state model, 310 K
Procedure: as §1
The change of line-shape and peak positions in the [^15N,^1H]-HSQC spectra upon adding (KR)n was simulated using in-house written Mathematica notebooks. In principle, for the simple two-state process of ligand binding, described only by single kon and koff rates and the concentrations used, the modified Bloch McConnell equations[49] can be used. […]
For simplicity, the same transverse relaxation rate R2 was assumed for all protein states and the chemical shift of the partially unbound state PL^* to be the same as for the free protein, that is ΩP . ΩPL is the chemical shift of the bound state and L the equilibrium concentration of the free peptide. […] Thereby the k1,on and k1,off rate constants were chosen such that their ratio was in the range of the measured or predicted Kd values[21] and that all signals during the titration could be fitted well (see text, Supplementary Fig. 12). […]

[3] = target: N^AM4C designed Armadillo repeat protein (dArmRP) with the redesigned N^A (artificial) cap, four identical internal modules M and the C cap; test: NMR titration; line-shape simulation of traces from [15N,1H]-HSQC titrations; three-state model P + L = PL = PL*; parameters adjusted by visual inspection, k1,on and k1,off chosen so that their ratio fits the measured or predicted Kd
[4] = target: N^AM4C designed Armadillo repeat protein (dArmRP) with the redesigned N^A (artificial) cap, four identical internal modules M and the C cap; test: NMR titration; [15N,1H]-HSQC chemical shift perturbations; 10 mM peptide stock titrated in 0.1 equivalent steps to 250 uM dArmRP in NMR buffer up to 1.5 equivalents, then 0.5 equivalent steps up to 5.5 equivalents; 310 K
[5] = target: N^AM7C designed Armadillo repeat protein (dArmRP) with the N^A cap, seven identical internal modules M and the C cap; test: NMR titration; line-shape simulation of traces from [15N,1H]-HSQC titrations; three-state model P + L = PL = PL*; parameters adjusted by visual inspection, k1,on and k1,off chosen so that their ratio fits the measured or predicted Kd
[6] = target: N^YM7C designed Armadillo repeat protein (dArmRP) with the N^Y cap, seven identical internal modules M and the C cap; test: NMR titration; [15N,1H]-HSQC chemical shift perturbations; 10 mM peptide stock titrated in 0.1 equivalent steps to 250 uM dArmRP in NMR buffer up to 1.5 equivalents, then 0.5 equivalent steps up to 5.5 equivalents; 310 K
mCherry-tagged N^YM7C = test: FRET or BRET; FRET-based stopped-flow assay; 20 nM GFP-tagged peptide mixed 1:1 (volume) with 50-250 nM mCherry-tagged NM7C for kon; koff from competition: preincubated 50 nM tagged peptide and 40 nM tagged protein mixed 1:1 with 2 uM unlabeled competitor

Molecule: (Lys-Arg)4 [(KR)4]
peptide required for full saturation (N^AM4C [1]): 1.3 equiv.
k2 (isomerization of bound state, PL to PL*) (N^AM4C [2]): 30 s^–1
k2’ (PL* to PL) (N^AM4C [2]): 700 s^–1

Molecule: Ac-KRKRKRKR-OH [(KR)4 peptide, (Lys-Arg)4 octapeptide]
k1,off (step 1, overall unbinding; line-shape simulation parameter) [3]: 300 s^–1
k1,on (step 1, overall binding; line-shape simulation parameter) [3]: 1e+09 M⁻¹ s⁻¹
k2 (step 2, exchange in the bound state, PL to PL*) [3]: 30 s^–1
k2’ (step 2, exchange in the bound state, PL* to PL) [3]: 700 s^–1
equivalents of peptide required for full saturation [4]: 1.3 equiv.

Other lines, results leading:

k1,off (step 1, overall unbinding; line-shape simulation parameter) [5]: 0.0003 s^–1
k1,on (step 1, overall binding; line-shape simulation parameter) [5]: 6.2e+08 M^–1·s^–1
k2 (step 2, exchange in the bound state, PL to PL*) [5]: 30 s^–1
k2’ (step 2, exchange in the bound state, PL* to PL) [5]: 100 s^–1
equivalents of peptide required for full saturation [4]: 1 equiv.
equivalents of peptide required for full saturation [6]: 1 equiv.
Molecule: Ac-KRKRKRKRKRKRKR-OH [(KR)7 peptide]

koff (mCherry-tagged N^YM7C): 0.23 s⁻¹
Molecule: KRKRKRKR [GFP-tagged (KR)4 peptide]
